Four proteins from patent US20090269779 can be followed below.

In data set [1] the target is galectin-3 A33G and H64P double mutant, P17931.
The target in data set [2] is galectin-3 A33G mutant, P17931.
Data set [3] addresses galectin-3 H64P mutant, P17931.
In data set [4] the target is human wild type galectin-3, P17931.
Chain of human wild type galectin-3, P17931 (P17931 whole entry): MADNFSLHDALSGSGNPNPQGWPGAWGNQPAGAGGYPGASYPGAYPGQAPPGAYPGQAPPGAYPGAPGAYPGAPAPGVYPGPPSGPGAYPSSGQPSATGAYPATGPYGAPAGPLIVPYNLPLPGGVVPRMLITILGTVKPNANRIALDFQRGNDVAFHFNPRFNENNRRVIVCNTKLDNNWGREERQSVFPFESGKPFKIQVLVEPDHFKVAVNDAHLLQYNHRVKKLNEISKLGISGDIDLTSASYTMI

Chain of galectin-3 A33G and H64P double mutant, P17931 (P17931 whole entry, looked up, stated change not applied): as the sequence (P17931 whole entry) above
Chain of galectin-3 H64P mutant, P17931 (P17931 whole entry, looked up, stated change not applied): as the sequence (P17931 whole entry) above
Chain of galectin-3 A33G mutant, P17931 (P17931 whole entry A33G): as the sequence (P17931 whole entry) above, with A33G counted along it

B1: activated human recombinant MMP-9 (protein)
chain: MRTPRCGVPDLGRFQTFEGDLKWHHHNITYWIQNYSEDLPRAVIDDAFARAFALWSAVTPLTFTRVYSRDADIVIQFGVAEHGDGYPFDGKDGLLAHAFPPGPGIQGDAHFDDDELWSLGKGVVVPTRFGNADGAACHFPFIFEGRSYSACTTDGRSDGLPWCSTTANYDTDDRFGFCPSERLYTQDGNADGKPCQFPFIFQGQSYSACTTDGRSDGYRWCATTANYDRDKLFGFCPTRADSTVMGGNSAGELCVFPFTFLGKEYSTCTSEGRGDGRLWCATTSNFDSDKKWGFCPDQGYSLFLVAAHEFGHALGLDHSSVPEALMYPMYRFTEGPPLHKDDVNGIRHLYGPRPEPEPRPPTTTTPQPTAPPTVCPTGPPTVHPSERPTAGPTGPPSAGPTGPPTAGPSTATTVPLSPVDDACNVNIFDAIAEIGNQLYLFKDGKYWRFSEGRGSRPQGPFLIADKWPALPRKLDSVFEERLSKKLFFFSGRQVWVYTGASVLGPRRLDKLGLGADVAQVTGALRSGRGKMLLFSGRRLWRFDVKAQMVDPRSASEVDRMFPGVPLDTHDVFQYREKAYFCQDRFYWRVSSRSELNQVDQVGYVTYDILQCPED
In the case of B1, the “cleavage of recombinant galectin-3 (Western blot)” value (“cleavage” for short) in data set [1] is “Double mutation at A33G and H64P showed complete resistance to cleavage by both MMP-2 and MMP-9”; in data set [2], “Wild type and A33G galectin-3 produced a polypeptide of ~22 kDa consistent with cleavage at Ala62-Tyr63”; in data set [3], “MMP-9 did not cleave the H64P mutant”; in data set [4] it was “Wild type and A33G galectin-3 produced a polypeptide of ~22 kDa consistent with cleavage at Ala62-Tyr63”.

B2: human recombinant pro-MMP-9 (protein)
chain: APRQRQSTLVLFPGDLRTNLTDRQLAEEYLYRYGYTRVAEMRGESKSLGPALLLLQKQLSLPETGELDSATLKAMRTPRCGVPDLGRFQTFEGDLKWHHHNITYWIQNYSEDLPRAVIDDAFARAFALWSAVTPLTFTRVYSRDADIVIQFGVAEHGDGYPFDGKDGLLAHAFPPGPGIQGDAHFDDDELWSLGKGVVVPTRFGNADGAACHFPFIFEGRSYSACTTDGRSDGLPWCSTTANYDTDDRFGFCPSERLYTQDGNADGKPCQFPFIFQGQSYSACTTDGRSDGYRWCATTANYDRDKLFGFCPTRADSTVMGGNSAGELCVFPFTFLGKEYSTCTSEGRGDGRLWCATTSNFDSDKKWGFCPDQGYSLFLVAAHEFGHALGLDHSSVPEALMYPMYRFTEGPPLHKDDVNGIRHLYGPRPEPEPRPPTTTTPQPTAPPTVCPTGPPTVHPSERPTAGPTGPPSAGPTGPPTAGPSTATTVPLSPVDDACNVNIFDAIAEIGNQLYLFKDGKYWRFSEGRGSRPQGPFLIADKWPALPRKLDSVFEERLSKKLFFFSGRQVWVYTGASVLGPRRLDKLGLGADVAQVTGALRSGRGKMLLFSGRRLWRFDVKAQMVDPRSASEVDRMFPGVPLDTHDVFQYREKAYFCQDRFYWRVSSRSELNQVDQVGYVTYDILQCPED
Turning to B2, in data set [4], the “cleavage” value is reported as “The cleavage products were not seen when galectin-3 was incubated alone or with pro-MMPs”.

B3: human recombinant pro-MMP-2 (protein)
chain: APSPIIKFPGDVAPKTDKELAVQYLNTFYGCPKESCNLFVLKDTLKKMQKFFGLPQTGDLDQNTIETMRKPRCGNPDVANYNFFPRKPKWDKNQITYRIIGYTPDLDPETVDDAFARAFQVWSDVTPLRFSRIHDGEADIMINFGRWEHGDGYPFDGKDGLLAHAFAPGTGVGGDSHFDDDELWTLGEGQVVRVKYGNADGEYCKFPFLFNGKEYNSCTDTGRSDGFLWCSTTYNFEKDGKYGFCPHEALFTMGGNAEGQPCKFPFRFQGTSYDSCTTEGRTDGYRWCGTTEDYDRDKKYGFCPETAMSTVGGNSEGAPCVFPFTFLGNKYESCTSAGRSDGKMWCATTANYDDDRKWGFCPDQGYSLFLVAAHEFGHAMGLEHSQDPGALMAPIYTYTKNFRLSQDDIKGIQELYGASPDIDLGTGPTPTLGPVTPEICKQDIVFDGIAQIRGEIFFFKDRFIWRTVTPRDKPMGPLLVATFWPELPEKIDAVYEAPQEEKAVFFAGNEYWIYSASTLERGYPKPLTSLGLPPDVQRVDAAFNWSKNKKTYIFAGDKFWRYNEVKKKMDPGFPKLIADAWNAIPDNLDAVVDLQGGGHSYFFKGAYYLKLENQSLKSVKFGSIKSDWLGC
For the protein B3, the “cleavage” value in data set [4] was “The cleavage products were not seen when galectin-3 was incubated alone or with pro-MMPs”.

B4: activated human recombinant MMP-2 (protein)
chain: YNFFPRKPKWDKNQITYRIIGYTPDLDPETVDDAFARAFQVWSDVTPLRFSRIHDGEADIMINFGRWEHGDGYPFDGKDGLLAHAFAPGTGVGGDSHFDDDELWTLGEGQVVRVKYGNADGEYCKFPFLFNGKEYNSCTDTGRSDGFLWCSTTYNFEKDGKYGFCPHEALFTMGGNAEGQPCKFPFRFQGTSYDSCTTEGRTDGYRWCGTTEDYDRDKKYGFCPETAMSTVGGNSEGAPCVFPFTFLGNKYESCTSAGRSDGKMWCATTANYDDDRKWGFCPDQGYSLFLVAAHEFGHAMGLEHSQDPGALMAPIYTYTKNFRLSQDDIKGIQELYGASPDIDLGTGPTPTLGPVTPEICKQDIVFDGIAQIRGEIFFFKDRFIWRTVTPRDKPMGPLLVATFWPELPEKIDAVYEAPQEEKAVFFAGNEYWIYSASTLERGYPKPLTSLGLPPDVQRVDAAFNWSKNKKTYIFAGDKFWRYNEVKKKMDPGFPKLIADAWNAIPDNLDAVVDLQGGGHSYFFKGAYYLKLENQSLKSVKFGSIKSDWLGC
With B4, the “cleavage” value in data set [1] was “Double mutation at A33G and H64P showed complete resistance to cleavage by both MMP-2 and MMP-9”; in data set [2], “Wild type and A33G galectin-3 produced a polypeptide of ~22 kDa consistent with cleavage at Ala62-Tyr63”; in data set [3], “The H64P mutant produced a ~27-kDa polypeptide upon incubation with MMP-2 indicating that it is cleaved at Gly32-Ala33”; in data set [4] it was “Wild type and A33G galectin-3 produced a polypeptide of ~22 kDa consistent with cleavage at Ala62-Tyr63”.
